Columns and labels:
SdrG = target: T1, SdrG (UniProt Q9KI13 50-597); test: ELISA, SdrG
T1 sequence (looked up): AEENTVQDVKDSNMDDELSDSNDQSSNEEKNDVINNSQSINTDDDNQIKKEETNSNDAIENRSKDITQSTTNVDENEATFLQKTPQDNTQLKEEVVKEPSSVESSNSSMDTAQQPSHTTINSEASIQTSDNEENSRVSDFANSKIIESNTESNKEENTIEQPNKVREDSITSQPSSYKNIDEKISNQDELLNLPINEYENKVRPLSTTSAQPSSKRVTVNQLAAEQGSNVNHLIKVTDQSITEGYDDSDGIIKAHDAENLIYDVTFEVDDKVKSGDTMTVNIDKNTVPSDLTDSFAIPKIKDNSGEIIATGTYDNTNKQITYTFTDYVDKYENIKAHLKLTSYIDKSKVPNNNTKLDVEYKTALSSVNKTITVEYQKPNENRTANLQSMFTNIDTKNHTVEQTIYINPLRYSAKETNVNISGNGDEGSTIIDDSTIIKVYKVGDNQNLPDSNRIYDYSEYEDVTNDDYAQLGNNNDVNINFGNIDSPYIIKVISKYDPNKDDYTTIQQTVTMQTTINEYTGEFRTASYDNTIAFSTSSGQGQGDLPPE

[1] = target: T2, ClfA on S. aureus strain Newman cells (wild type) (Staphylococcus aureus strain Newman, UniProt Q53653 40-899); test: flow cytometry, 3 hr culture
T2 construct: whole, on cells; also called Newman WT; Newman-WT
T2 sequence (Q53653 40-899): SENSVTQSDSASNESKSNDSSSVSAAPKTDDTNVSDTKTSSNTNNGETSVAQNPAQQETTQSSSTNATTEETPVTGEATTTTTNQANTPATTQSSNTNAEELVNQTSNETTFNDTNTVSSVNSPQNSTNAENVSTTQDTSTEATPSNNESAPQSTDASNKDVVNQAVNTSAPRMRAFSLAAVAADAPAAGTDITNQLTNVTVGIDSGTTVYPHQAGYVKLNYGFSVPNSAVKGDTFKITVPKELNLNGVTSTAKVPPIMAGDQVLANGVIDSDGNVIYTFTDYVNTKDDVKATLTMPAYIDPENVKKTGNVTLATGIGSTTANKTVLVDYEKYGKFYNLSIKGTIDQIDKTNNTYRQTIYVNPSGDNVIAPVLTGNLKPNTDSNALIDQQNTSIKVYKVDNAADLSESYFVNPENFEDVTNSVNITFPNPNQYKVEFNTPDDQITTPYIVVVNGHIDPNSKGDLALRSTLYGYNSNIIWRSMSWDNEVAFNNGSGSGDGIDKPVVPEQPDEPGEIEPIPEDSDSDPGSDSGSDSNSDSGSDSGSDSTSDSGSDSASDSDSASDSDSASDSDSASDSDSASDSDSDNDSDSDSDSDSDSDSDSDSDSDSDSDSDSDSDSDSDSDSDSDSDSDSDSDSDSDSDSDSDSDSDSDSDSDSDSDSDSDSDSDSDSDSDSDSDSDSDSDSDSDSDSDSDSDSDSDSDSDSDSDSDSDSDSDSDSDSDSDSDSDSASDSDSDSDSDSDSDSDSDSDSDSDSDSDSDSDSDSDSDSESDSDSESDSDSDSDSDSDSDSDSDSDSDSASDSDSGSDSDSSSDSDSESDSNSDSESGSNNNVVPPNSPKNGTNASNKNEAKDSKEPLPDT
Procedure: (§1) As well, Newman ClfA::emr (ClfA knockout) and NewmanSpa::kan (Protein A knockout) were analyzed in the same manner as specificity controls. Following incubation with antibody, bacterial cells were incubated with Goat-F_{(ab′)2}-Anti-Mouse-F_{(ab′)2}-FITC which served as the detection antibody. […] For each bacterial strain, 10,000 events were collected and measured.

[2] = target: T3, ClfA on S. aureus strain 560 SAL 1 cells (Staphylococcus aureus strain 560 Sal 1); test: flow cytometry, 3 hr culture
T3 construct: whole, on cells
Procedure: as §1

[3] = target: T4, ClfA on S. aureus strain 203 SAL2 cells (Staphylococcus aureus strain 203 Sal 2); test: flow cytometry, 3 hr culture
T4 construct: whole, on cells
Procedure: as §1

[4] = target: T5, ClfA on S. aureus strain 451 SAL4 cells (Staphylococcus aureus strain 451 Sal 4); test: flow cytometry, 3 hr culture
T5 construct: whole, on cells
Procedure: as §1

[5] = target: T6, ClfA on S. aureus strain 206 SAL5 cells (Staphylococcus aureus strain 206 Sal5); test: flow cytometry, 3 hr culture
T6 construct: whole, on cells
Procedure: as §1

[6] = target: T7, ClfA on S. aureus strain 397 SAL6 cells (Staphylococcus aureus strain 397 Sal 6); test: flow cytometry, 3 hr culture
T7 construct: whole, on cells
Procedure: as §1

[7] = target: T8, ClfA on S. aureus strain 49 Europe cells (Staphylococcus aureus strain 49); test: flow cytometry, 3 hr culture
T8 construct: whole, on cells
Procedure: as §1

[8] = target: T9, ClfA on S. aureus strain 189 Japan cells (Staphylococcus aureus strain 189); test: flow cytometry, 3 hr culture
T9 construct: whole, on cells
Procedure: as §1

[9] = target: T10, ClfA on S. aureus strain 203 Singapore cells (Staphylococcus aureus strain 203); test: flow cytometry, 3 hr culture
T10 construct: whole, on cells
Procedure: as §1

[10] = target: T11, ClfA on S. aureus strain 4046 USA cells (Staphylococcus aureus strain 4046); test: flow cytometry, 3 hr culture
T11 construct: whole, on cells
Procedure: as §1

[11] = target: T12, ClfA on S. aureus strain 67-0 cells (MRSA) (Staphylococcus aureus strain 67-0); test: flow cytometry, 3 hr culture
T12 construct: whole, on cells
Procedure: as §1

[12] = target: T2, ClfA on S. aureus strain Newman cells …; test: flow cytometry, overnight culture
Procedure: as §1

[13] = target: T3, ClfA on S. aureus strain 560 SAL 1 cells; test: flow cytometry, overnight culture
Procedure: as §1

[14] = target: T4, ClfA on S. aureus strain 203 SAL2 cells; test: flow cytometry, overnight culture
Procedure: as §1

[15] = target: T5, ClfA on S. aureus strain 451 SAL4 cells; test: flow cytometry, overnight culture
Procedure: as §1

[16] = target: T6, ClfA on S. aureus strain 206 SAL5 cells; test: flow cytometry, overnight culture
Procedure: as §1

[17] = target: T7, ClfA on S. aureus strain 397 SAL6 cells; test: flow cytometry, overnight culture
Procedure: as §1

[18] = target: T8, ClfA on S. aureus strain 49 Europe cells; test: flow cytometry, overnight culture
Procedure: as §1

[19] = target: T9, ClfA on S. aureus strain 189 Japan cells; test: flow cytometry, overnight culture
Procedure: as §1

[20] = target: T10, ClfA on S. aureus strain 203 Singapore …; test: flow cytometry, overnight culture
Procedure: as §1

[21] = target: T11, ClfA on S. aureus strain 4046 USA cells; test: flow cytometry, overnight culture
Procedure: as §1

[22] = target: T12, ClfA on S. aureus strain 67-0 cells …; test: flow cytometry, overnight culture
Procedure: as §1

[23] = target: T2, ClfA on S. aureus strain Newman cells …; test: flow cytometry on S. aureus cells (FIG. 3)

B1: ClfA monoclonal antibody 12-9 (antibody, V domains shown)
VH: QVQLKESGPGLVAPSQSLSITCAISGFSLSRYSVHWVRQPPGKGLEWLGMIWGGGNTDYNSALKSRLSISKDNSKSQVFLKMNSLQTDDTAMYYCARKGEFYYGYDGFVYWGQGTLVTVSA
VL: NIMMTQSPSSLAVSAGEKVTMSCKSSQSVLYSSNQKNYLAWYQQKPGQSPKLLIYWASTRESGVPDRFTGSGSGTDFTLTISSVQAEDLAVYYCHQYLSSYTFGGGTKLEIK
notes: also called F12-9; Mab 12-9
SdrG
  binding result: no binding
[1]
  Fluorescence Intensity (Geometric Mean): 30.8
[2]
  Fluorescence Intensity (Geometric Mean): 28.8
[3]
  Fluorescence Intensity (Geometric Mean): 16.1
[4]
  Fluorescence Intensity (Geometric Mean): 1.1
[5]
  Fluorescence Intensity (Geometric Mean): 8.8
[6]
  Fluorescence Intensity (Geometric Mean): 28.9
[7]
  Fluorescence Intensity (Geometric Mean): 7.3
[8]
  Fluorescence Intensity (Geometric Mean): 11
[9]
  Fluorescence Intensity (Geometric Mean): 22.1
[10]
  Fluorescence Intensity (Geometric Mean): 27.7
[11]
  Fluorescence Intensity (Geometric Mean): 11.2
[12]
  Fluorescence Intensity (Geometric Mean): 44.3
[13]
  Fluorescence Intensity (Geometric Mean): 36.1
[14]
  Fluorescence Intensity (Geometric Mean): 40.4
[15]
  Fluorescence Intensity (Geometric Mean): 12.9
[16]
  Fluorescence Intensity (Geometric Mean): 33.5
[17]
  Fluorescence Intensity (Geometric Mean): 62.1
[18]
  Fluorescence Intensity (Geometric Mean): 11.3
[19]
  Fluorescence Intensity (Geometric Mean): 15.7
[20]
  Fluorescence Intensity (Geometric Mean): 15.4
[21]
  Fluorescence Intensity (Geometric Mean): 23.5
[22]
  Fluorescence Intensity (Geometric Mean): 27.6

B2: Chimeric monoclonal antibody 12-9 (antibody, V domains shown)
VH: QVQLKESGPGLVAPSQSLSITCAISGFSLSRYSVHWVRQPPGKGLEWLGMIWGGGNTDYNSALKSRLSISKDNSKSQVFLKMNSLQTDDTAMYYCARKGEFYYGYDGFVYWGQGTLVTVSA
VL: NIMMTQSPSSLAVSAGEKVTMSCKSSQSVLYSSNQKNYLAWYQQKPGQSPKLLIYWASTRESGVPDRFTGSGSGTDFTLTISSVQAEDLAVYYCHQYLSSYTFGGGTKLEIK
notes: also called Chimeric 12-9; recombinant chimeric 12-9
[23]
  binding result: binds
